Earlier results, collected in US8501705B2, “Methods and materials for treating autoimmune and/or complement mediated diseases and conditions” (The Board of Regents of the University of Texas System, priority 2003, dated 2013).

Target: C3 (Mus musculus, UniProt P01027)
Details: inhibition of C3

Sequence of C3 (P01027 25-1663): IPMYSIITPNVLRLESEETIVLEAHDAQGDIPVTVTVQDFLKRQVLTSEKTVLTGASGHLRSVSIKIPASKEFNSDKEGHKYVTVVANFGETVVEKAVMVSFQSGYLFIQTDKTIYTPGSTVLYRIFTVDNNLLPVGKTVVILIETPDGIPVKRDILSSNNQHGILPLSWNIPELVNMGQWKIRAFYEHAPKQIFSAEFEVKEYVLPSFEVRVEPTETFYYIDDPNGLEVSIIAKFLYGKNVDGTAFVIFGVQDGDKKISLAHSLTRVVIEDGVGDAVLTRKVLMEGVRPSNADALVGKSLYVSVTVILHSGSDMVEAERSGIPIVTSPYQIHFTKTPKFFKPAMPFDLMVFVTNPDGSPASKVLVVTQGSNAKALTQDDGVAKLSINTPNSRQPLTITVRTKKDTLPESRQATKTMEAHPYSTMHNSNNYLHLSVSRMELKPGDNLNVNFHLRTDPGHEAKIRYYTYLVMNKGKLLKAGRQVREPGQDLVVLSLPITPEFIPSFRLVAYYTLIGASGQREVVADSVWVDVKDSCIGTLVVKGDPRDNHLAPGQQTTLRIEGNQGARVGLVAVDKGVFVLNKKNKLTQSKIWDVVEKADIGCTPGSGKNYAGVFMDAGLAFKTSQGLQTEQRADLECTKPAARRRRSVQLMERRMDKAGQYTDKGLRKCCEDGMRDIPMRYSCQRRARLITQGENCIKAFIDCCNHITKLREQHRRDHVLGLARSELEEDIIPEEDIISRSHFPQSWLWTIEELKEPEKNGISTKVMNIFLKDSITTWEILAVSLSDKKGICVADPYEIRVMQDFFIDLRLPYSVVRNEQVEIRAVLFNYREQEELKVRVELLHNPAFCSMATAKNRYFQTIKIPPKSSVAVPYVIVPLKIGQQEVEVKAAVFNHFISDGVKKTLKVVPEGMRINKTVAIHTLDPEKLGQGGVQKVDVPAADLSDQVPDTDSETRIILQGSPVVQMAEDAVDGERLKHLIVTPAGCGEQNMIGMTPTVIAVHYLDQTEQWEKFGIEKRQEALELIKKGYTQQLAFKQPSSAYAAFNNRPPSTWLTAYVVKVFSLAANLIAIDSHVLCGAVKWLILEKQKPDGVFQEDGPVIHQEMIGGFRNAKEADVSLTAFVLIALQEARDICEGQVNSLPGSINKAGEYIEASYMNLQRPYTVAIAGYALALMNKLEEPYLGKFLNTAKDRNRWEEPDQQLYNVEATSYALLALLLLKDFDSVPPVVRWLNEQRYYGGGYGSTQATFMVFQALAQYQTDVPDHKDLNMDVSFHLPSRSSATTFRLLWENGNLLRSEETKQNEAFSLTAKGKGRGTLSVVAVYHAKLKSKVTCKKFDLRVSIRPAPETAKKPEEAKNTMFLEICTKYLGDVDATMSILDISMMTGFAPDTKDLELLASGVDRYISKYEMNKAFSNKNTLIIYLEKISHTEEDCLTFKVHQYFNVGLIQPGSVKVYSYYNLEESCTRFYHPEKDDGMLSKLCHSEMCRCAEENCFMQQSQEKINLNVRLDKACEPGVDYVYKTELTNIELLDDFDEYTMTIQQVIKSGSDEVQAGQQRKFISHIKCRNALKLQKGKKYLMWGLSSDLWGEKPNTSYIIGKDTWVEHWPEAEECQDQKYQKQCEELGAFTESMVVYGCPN

## cobra venom factor
  EAMG disease induction: inhibits disease induction
